Experimental data taken from article PMC5517495, “Candidate SNP Markers of Familial and Sporadic Alzheimer's Diseases Are Predicted by a Significant Change in the Affinity of TATA-Binding Protein for Human Gene Promoters”.

Target: TATA-binding protein (TBP) (human, UniProt P20226 1-339)
Experiment: stopped-flow fluorescence (FRET); 0.1 uM ODN, 0.1-1.0 uM TBP; EMSA: 20 mM HEPES-KOH pH 7.6, 5 mM MgCl2, 70 mM KCl, 1 mM EDTA, 100 ug/ml BSA, 0.01% NP-40 (printed 0.0.1%), 5% glycerol, 25 C; stopped-flow buffer not stated
Settings: protein: recombinant; label: 5' TAMRA and 5' FAM; blunt

TATA-binding protein (TBP), sequence (P20226 whole entry): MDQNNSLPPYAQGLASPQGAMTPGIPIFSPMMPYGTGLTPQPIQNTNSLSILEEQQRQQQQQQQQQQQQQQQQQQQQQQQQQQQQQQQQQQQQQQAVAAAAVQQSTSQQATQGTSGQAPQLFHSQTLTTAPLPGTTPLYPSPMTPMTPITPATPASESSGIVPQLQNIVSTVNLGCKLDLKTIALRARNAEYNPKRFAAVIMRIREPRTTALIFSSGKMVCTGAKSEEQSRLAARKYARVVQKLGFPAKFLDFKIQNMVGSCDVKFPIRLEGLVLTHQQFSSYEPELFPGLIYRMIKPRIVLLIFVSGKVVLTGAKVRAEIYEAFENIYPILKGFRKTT

B1: TPI1 promoter rs1800202 ancestral allele (stopped-flow) (dsDNA)
DNA 1: CGCGGCGCTCTATATAAGTGGGCAGT
DNA 2: ACTGCCCACTTATATAGAGCGCCGCG
  Kd: 1 nM

B2: TPI1 promoter rs1800202 minor allele (stopped-flow) (dsDNA)
DNA 1: CGCGGCGCTCTATAGAAGTGGGCAGT
DNA 2: ACTGCCCACTTCTATAGAGCGCCGCG
  Kd: 19 nM
